Test results published in article PMC3852774.

B1: Tth Man5 β-mannosidase (Pseudothermotoga thermarum DSM 5069) (protein)
chain: MDFLLGINYWSRSGAMYMWEDEYFNEEVIENEIIEMKNLGMNICRSFLFLPTFFPKPNKISEKHVERYLKFLNLCEEHGLKTLLTFIVGHMSGENFDPPFRNQRDLYMDEFMLQQQCFFVKSIVEKVRSSPAVYGYILSNEMPLYGGTGEPEKVLNWVKKLVEVIKSVDPTRPVGTGDGCWNVFGGENGFNLREISKIVDYLGPHVYLSETDEYRHSMIPEFVIRYLSQYDLPILYEEFGASSAQALDENIALYYREVLINCLINGAIGALGWCLNDFNYPNMKPYLHHPFELKFGIFKVDGARKPAAEEIVKFKNFVDSLENIQYPNAEACILVPSYYNKQYPFSFDDPKETFKHLLQATVLCAKAGFVVDLVEEENYKRWKSYKLIILPSERKYLATTWENLHKYVQAGGNLYISYYWGKYDFHQGIWSQNLESLIGCKLNLRYGLTSSLPSKVKLEYGGLTWKLNVEKCNEWEKSYAPIVSILETAESIELGQSDLQLVKNKVGSGKVFFINFPLEHILSVNEKINLSDLSHLIYRCIAKQASLNLCYCDNQRVRVRKIKSGRKTLYLIQNIAWDKEQVQTIFDNSSTYHVQIELDPKEYKLLNF

Columns and labels:
[1] = target: Tth Man5 β-mannosidase from Thermotoga thermarum DSM 5069 (Thermotoga thermarum DSM 5069); experiment: SEC; Superdex 200 10/30 GL column on an AKTA FPLC system; MW from the calibration curve of the gel filtration column
purified protein = substrate: O=[N+]([O-])c1ccc(O[C@@H]2O[C@H](CO)[C@@H](O)[C@H](O)[C@@H]2O)cc1; experiment: purified protein; conditions: 50 mM imidazole-potassium buffer pH 5.5, 85°C, error given as ±0.5

Molecule | stoichiometry N [1] | Km (purified protein) | Vmax (purified protein) | kcat (purified protein) | kcat/Km (purified protein)
Tth Man5 β-mannosidase from Thermotoga thermarum DSM 5069 (enzyme) | 7 |  |  |  | 
B1 |  | 4.36 ± 0.05 mM | 227 µmol/min/mg | 1920 s⁻¹ | 441000 M⁻¹ s⁻¹
